Assay results reported in article doi:10.1101/2021.07.31.454597 (bioRxiv, 2021).

Assays:
[1] = molecular target: Cre^Yang (R72E/L115D/R199D) (UniProt P06956); assay: native MS
[2] = molecular target: the molecule itself; assay: cryo-EM structure

percent of the 2:1 protein:loxP complexes (ion counts) [1]	Molecule	stoichiometry N [2]
36%	Cre^Yin (D33A/A36V/R192A) (from UniProt P06956 1-343) (enzyme)	
	Cre^K201A (enzyme) MSNLLTVHQNLPALPVDATSDEVRKNLMDMFRDRQAFSEHTWKMLLSVCRSWAAWCKLNNRKWFPAEPEDVRDYLLYLQARGLAVKTIQQHLGQLNMLHRRSGLPRPSDSNAVSLVMRRIRKENVDAGERAKQALAFERTDFDQVRSLMENSDRCQDIRNLAFLGIAYNTLLRIAEIARIRVKDISRTDGGRMLIHIGRTATLVSTAGVEKALSLGVTKLVERWISVSGVADDPNNYLFCRVRKNGVAAPSATSQLSTRALEGIFEATHRLIYGAKDDSGQRYLAWSGHSARVGAARDMARAGVSIPEIMQAGGWTNVNIVMNYIRNLDSETGAMVRLLEDGD	4
